Experimental data reported in patent publication US20100291106A1 (Novartis, published 2010).
Values belong to the binder of their own block, whether it stands above or below them.

How the values were obtained:
[1] = target: T1, human complement C3b protein (human, UniProt P01024 23-667; P01024 749-1663); experiment: cell-based or functional assay
[2] = target: T2, cynomolgus complement C3b protein (cynomolgus monkey (Macaca fascicularis)); experiment: cell-based or functional assay
[3] = target: T1, human complement C3b protein; experiment: solution equilibrium titration (SET), ECL detection, Fab
[4] = target: T2, cynomolgus complement C3b protein; experiment: as above
human C3d [5] = target: T3, human C3d (human, UniProt P01024 1002-1303); experiment: cross reactivity, ELISA on C3d, anti-His detection
T3 construct: domain: C3d
Method: In order to determine whether the anti-C3b antibodies described herein can bind to complement pathway components iC3b and C3c, the following steps were performed: Directly add iC3b(complement Technologies A115), C3d (complement Technologies A117), or C3c (complement Technologies A116), at 2 μg/ml in Carbonate Buffer onto Coat Maxisorp plate Nunc (442404) at 100 μl per well. Seal plates and incubate at 4° C. overnight. Aspirate plates and wash 3 times with PBS/0.5% Tween 20. Block plates with Diluent (PBS, 4% BSA Fraction V (Fisher ICN16006980), 0.1% Tween 20 (Sigma P1379), 0.1% Triton X-100 (Sigma P234729)) and incubate for 2 h at room temperature or overnight at 4° C. Then wash plates once with PBS/0.5% Tween 20. Dilute Fabs at 100 nM and subsequent dilutions (or higher concentration if needed) in diluent and plate 100 μl per well. Incubate at room temperature for 1 h. Wash plates 3 times with PBS/0.5% Tween 20. Add 100 μl/well of anti-Histidine-HRP monoclonal detection antibody at 1:400 in diluent and incubate at room temperature for 1 h. Then wash 4 times with PBS/0.5% Tween 20. Add 100 μl of TMB substrate (Pierce 34028) and incubate at room temperature for up to 5 min. Add 50 μl of Stop solution (2N Sulfuric Acid) to each well and read plate at 450 nm and correct for plastic reading at 570 nm.

human C5 [6] = target: T4, human C5 (human, UniProt P01031 19-673; P01031 678-1676); experiment: cross reactivity, capture ELISA with anti-C5 capture antibody, anti-His detection
T4 construct: Captured by an anti-C5 antibody in the ELISA

[7] = target: T1, human complement C3b protein; experiment: SPR (Biacore), C3b captured by anti-C3d antibody, Fab as analyte
[8] = target: T2, cynomolgus complement C3b protein; experiment: as above
[9] = target: T1, human complement C3b protein; experiment: ELISA, C3b or C3 captured by anti-C3d antibody
Method: The C3b antibodies were examined to determine whether they were selective for binding to C3b relative to the C3b precursor C3. Briefly, binding selectivity for C3b was determined by performing the following steps. Coat Maxisorp plate Nunc (442404) with anti-C3d rabbit monoclonal (abcam 17453) at 2 μg/ml in Carbonate Buffer at 100 μl/well. Seal plates and incubate at 4° C. overnight. Aspirate plates and wash 3 times with PBS/0.5% Tween 20. Block plates with Diluent (PBS, 4% BSA Fraction V (Fisher ICN16006980), 0.1% Tween 20 (Sigma P1379), 0.1% Triton X-100 (Sigma P234729)) and incubate for 2 h at room temperature or overnight at 4° C. Then wash plates once with PBS/0.5% Tween 20. Dilute purified C3b (complement technologies A114 lot 21) and C3 (complement technologies A113c) at 1 μg/ml in diluent and plate 100 μl per well. Incubate for 1 h at room temperature. Then wash 3 times with PBS/0.5% Tween 20.
Dilute Fabs at 100 nM and subsequent dilutions (or higher concentration) in diluent and plate 100 μl per well. Incubate at room temperature for 1 h. Wash plates 3 times with PBS/0.5% Tween 20. Add 100 μl/well of anti-Histidine-HRP monoclonal detection antibody at 1:400 in diluent and incubate at room temperature for 1 h. Then wash 4 times with PBS/0.5% Tween 20. Add 100 μl of TMB substrate (Pierce 34028) and incubate at room temperature for up to 5 min. Add 50 μl of Stop solution (2N Sulfuric Acid) to each well and read plate at 450 nm and correct for plastic reading at 570 nm.

[10] = target: T1, human complement C3b protein; experiment: AlphaScreen bead proximity, C3b-Acceptor beads pre-incubated with antibody, then biotinylated fH and SA-Donor beads; blocked ligand: fH [C]
Method: In brief, purified C3b and fP were conjugated to unconjugated acceptor or donor beads (PerkinElmer) using AminoLink Reductant (Pierce) during a 48 h incubation at room temperature. Beads were quenched using Carboxymethoxylamine Hemihydrochloride (Aldrich), and purified by centrifugation at 13000 rpm and three washes with 0.1M TBST. Purified fB(D24G/N260D) and fH were biotinylated during a 30 min incubation with 20-fold molar excess of NHS-Chromogenic-biotin (Pierce) at room temperature, and purified using Zeba 0.5 ml desalting columns (Pierce).
For C3b-C3b and C3b-fP proximity, Fabs or IgGs respectively were pre-incubated with C3b-Acceptor beads (20 μg/ml) for 60 min at room temperature. C3b-Donor beads or fP-Donor beads (20 μg/ml) were then added, and the plate was incubated overnight at room temperature before reading. For C3b-fB and C3b-fH proximity, antibodies were pre-incubated with C3b-Acceptor beads (20 μg/ml) for 60 minutes at room temperature. Biotinylated fB(D24G/N260D) or fH were then added, and incubated for 60 minutes at room temperature. SA-Donor beads were then added (20 μg/ml) and the plate was incubated overnight at room temperature before reading. Plates were read on the BMG Pherastar (ex=680, em=520-620).

[11] = target: T1, human complement C3b protein; experiment: cell-based or functional assay; remark: listed apart in the source
human C3d [12] = target: T3, human C3d; experiment: C3d binding ELISA, IgG titrated from about 0.006 to 100 nM
[13] = target: T1, human complement C3b protein; experiment: SPR (Biacore T100), C3b captured by anti-C3d antibody, IgG as analyte, 1:1 model
[14] = target: T2, cynomolgus complement C3b protein; experiment: as above
human C5 [15] = target: T4, human C5; experiment: Direct ELISA at 2 ug/ml C5, 200 nM Fab

T1 sequence (P01024 23-667 P314L, chain 1 of 2): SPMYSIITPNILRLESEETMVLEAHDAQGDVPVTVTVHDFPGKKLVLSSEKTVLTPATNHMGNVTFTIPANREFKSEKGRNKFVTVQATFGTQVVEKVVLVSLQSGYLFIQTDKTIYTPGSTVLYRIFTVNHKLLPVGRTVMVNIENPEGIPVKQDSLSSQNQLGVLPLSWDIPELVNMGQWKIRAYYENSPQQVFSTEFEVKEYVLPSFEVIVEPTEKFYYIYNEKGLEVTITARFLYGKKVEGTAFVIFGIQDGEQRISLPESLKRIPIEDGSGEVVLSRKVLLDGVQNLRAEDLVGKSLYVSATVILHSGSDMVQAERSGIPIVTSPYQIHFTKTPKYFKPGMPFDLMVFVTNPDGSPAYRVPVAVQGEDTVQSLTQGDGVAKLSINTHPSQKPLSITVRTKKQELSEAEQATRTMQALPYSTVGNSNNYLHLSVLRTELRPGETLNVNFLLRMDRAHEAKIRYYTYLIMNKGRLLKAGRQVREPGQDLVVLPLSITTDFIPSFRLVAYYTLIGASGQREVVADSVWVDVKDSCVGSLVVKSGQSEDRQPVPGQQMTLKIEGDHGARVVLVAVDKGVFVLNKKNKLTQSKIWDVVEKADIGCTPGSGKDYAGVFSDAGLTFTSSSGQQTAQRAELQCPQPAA
T1 sequence (P01024 749-1663, chain 2 of 2): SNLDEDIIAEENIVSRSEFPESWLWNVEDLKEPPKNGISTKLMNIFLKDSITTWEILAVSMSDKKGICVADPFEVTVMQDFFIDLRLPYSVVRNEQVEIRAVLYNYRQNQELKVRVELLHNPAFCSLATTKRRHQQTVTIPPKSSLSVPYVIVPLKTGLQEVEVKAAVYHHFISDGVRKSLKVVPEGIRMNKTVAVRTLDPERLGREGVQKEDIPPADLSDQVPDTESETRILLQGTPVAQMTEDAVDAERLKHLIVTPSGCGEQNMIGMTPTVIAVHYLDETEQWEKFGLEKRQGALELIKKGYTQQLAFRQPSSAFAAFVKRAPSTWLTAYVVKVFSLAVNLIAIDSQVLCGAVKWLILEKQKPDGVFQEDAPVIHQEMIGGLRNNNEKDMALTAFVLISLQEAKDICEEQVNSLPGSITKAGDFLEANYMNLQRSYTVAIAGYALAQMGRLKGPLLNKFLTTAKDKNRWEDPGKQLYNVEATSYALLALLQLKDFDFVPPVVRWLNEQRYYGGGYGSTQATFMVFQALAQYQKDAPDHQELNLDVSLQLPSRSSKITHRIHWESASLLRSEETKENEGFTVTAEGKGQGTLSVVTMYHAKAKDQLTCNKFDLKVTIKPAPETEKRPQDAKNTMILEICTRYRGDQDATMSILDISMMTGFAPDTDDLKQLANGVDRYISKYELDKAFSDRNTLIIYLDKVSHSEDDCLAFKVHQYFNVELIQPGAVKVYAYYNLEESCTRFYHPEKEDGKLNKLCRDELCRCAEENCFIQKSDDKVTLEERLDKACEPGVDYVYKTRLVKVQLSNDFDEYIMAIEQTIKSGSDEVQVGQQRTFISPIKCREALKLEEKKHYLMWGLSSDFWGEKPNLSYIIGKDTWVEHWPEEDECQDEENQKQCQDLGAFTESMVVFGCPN
T3 sequence (P01024 1002-1303 limits assumed): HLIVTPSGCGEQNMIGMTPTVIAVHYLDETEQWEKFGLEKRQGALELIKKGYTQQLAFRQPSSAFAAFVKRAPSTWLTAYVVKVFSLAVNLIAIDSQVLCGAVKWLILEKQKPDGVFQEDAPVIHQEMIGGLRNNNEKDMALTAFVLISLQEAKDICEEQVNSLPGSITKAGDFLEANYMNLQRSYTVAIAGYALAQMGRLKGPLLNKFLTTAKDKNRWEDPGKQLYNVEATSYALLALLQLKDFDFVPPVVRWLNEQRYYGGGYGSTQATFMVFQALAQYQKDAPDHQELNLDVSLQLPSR
T4 sequence (P01031 19-673 limits assumed, chain 1 of 2): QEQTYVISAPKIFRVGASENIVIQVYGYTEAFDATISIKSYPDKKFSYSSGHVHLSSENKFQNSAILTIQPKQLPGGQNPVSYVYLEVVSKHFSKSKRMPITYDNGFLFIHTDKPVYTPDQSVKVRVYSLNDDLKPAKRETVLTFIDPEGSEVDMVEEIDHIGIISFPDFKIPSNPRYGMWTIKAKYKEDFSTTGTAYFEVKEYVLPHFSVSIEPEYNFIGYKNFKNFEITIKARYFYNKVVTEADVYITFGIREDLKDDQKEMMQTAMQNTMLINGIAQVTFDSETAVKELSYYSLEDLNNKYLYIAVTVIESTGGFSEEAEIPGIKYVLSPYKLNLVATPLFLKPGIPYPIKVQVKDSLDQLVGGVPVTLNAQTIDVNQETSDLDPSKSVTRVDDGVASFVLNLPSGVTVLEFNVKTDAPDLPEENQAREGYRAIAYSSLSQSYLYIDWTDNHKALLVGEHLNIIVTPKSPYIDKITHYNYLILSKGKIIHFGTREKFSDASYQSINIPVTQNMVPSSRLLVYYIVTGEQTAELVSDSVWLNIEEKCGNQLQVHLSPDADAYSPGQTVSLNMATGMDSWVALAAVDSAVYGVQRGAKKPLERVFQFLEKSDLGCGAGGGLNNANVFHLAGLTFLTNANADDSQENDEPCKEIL
T4 sequence (P01031 678-1676 limits assumed, chain 2 of 2): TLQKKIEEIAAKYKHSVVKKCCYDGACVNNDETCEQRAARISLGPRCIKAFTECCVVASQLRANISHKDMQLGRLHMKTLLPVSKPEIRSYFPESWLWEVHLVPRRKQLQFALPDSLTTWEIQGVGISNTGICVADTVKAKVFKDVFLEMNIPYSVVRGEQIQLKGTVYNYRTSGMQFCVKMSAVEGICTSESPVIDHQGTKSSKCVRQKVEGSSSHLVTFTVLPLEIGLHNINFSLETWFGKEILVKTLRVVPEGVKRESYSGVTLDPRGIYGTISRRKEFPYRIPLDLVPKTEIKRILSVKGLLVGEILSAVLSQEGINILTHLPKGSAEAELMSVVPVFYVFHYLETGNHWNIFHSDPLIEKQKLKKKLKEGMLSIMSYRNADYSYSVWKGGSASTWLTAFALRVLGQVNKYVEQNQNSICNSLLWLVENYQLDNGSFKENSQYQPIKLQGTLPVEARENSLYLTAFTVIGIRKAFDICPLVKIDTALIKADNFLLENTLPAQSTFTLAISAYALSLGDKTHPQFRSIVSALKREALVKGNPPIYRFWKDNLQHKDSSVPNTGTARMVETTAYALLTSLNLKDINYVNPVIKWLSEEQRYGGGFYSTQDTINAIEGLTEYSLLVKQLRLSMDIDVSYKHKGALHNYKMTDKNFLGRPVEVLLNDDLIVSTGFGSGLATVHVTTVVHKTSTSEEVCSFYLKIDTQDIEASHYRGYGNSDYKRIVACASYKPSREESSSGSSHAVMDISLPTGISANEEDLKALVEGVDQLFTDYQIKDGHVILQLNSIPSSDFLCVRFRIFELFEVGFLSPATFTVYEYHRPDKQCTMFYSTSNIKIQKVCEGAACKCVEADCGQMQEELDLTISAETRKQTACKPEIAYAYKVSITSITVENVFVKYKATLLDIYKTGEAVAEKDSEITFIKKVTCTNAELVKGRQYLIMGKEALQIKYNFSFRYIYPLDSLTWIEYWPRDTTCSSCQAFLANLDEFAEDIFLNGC

B1: MOR09136 Fab (Fab, V domains shown)
VH: QVQLVQSGAEVKKPGSSVKVSCKASGGTFSSYTFSWVRQAPGQGLEWMGNILPIFGDANYAQKFQGRVTITADESTSTAYMELSSLRSEDTAVYYCARNKGAFYYMSTYPSLDVWGQGTLVTVSS
VL: DIQMTQSPSSLSASVGDRVTITCRASQNINYYLNWYQQKPGKAPKLLIYDAFSLQSGVPSRFSGSGSGTDFTLTISSLQPEDFATYYCQQSWSVPPFTFGQGTKVEIKR
notes: also called Fab 9136
C3b Dep (nM), human serum, IC50 [1]: 8 nM
HA (nM), 10% human serum, IC50 [1]: 32 nM
MAC Dep (nM), human serum, IC50 [1]: 2 nM
C3b Dep (nM), cyno serum, IC50 [2]: 3 nM
HA (nM), 10% cyno serum, IC50 [2]: 52 nM
MAC Dep (nM), cyno serum, IC50 [2]: 3 nM
Kd [3]: 0.096 nM
Kd [4]: 0.016 nM
binding result (human C3d [5]): no binding
binding result (human C5 [6]): no binding
Kd [7]: 0.075 nM
Kd [8]: 0.005 nM

B2: MOR09609 IgG (antibody, V domains shown)
VH: EVQLVQSGAEVKKPGSSVKVSCKASGGTFSSYTFSWVRQAPGQGLEWMGNILPIFGDANYAQKFQGRVTITADESTSTAYMELSSLRSEDTAVYYCARNKGAFYYMSTYPSLDVWGQGTLVTVSS
VL: DIQMTQSPSSLSASVGDRVTITCRASQNINYYLNWYQQKPGKAPKLLIYDAFSLQSGVPSRFSGSGSGTDFTLTISSLQPEDFATYYCQQSWSVPPFTFGQGTKVEIKR
notes: Germlined human IgG1 with leucines 234 and 235 changed to alanines, kappa; also called antibody 9609
fold binding selectivity for C3b over C3 [9]: > 1000 fold
IC50 (read off the curve) [10]: ~0.1 nM
MAC deposition on zymosan, IC50 [11]: ≤ 5 nM
hemolysis of rabbit red blood cells, 10% human or cynomolgus serum, IC50 [11]: ≤ 50 nM
inhibition of C3a and C5a generation during hemolysis, IC50 [11]: ≤ 50 nM
binding result (human C3d [12]): no binding (tested: 100 nM)
Kd [13]: 0.0022 nM
koff [13]: 3.16e-06 s⁻¹
kon [13]: 1.44e+06 M⁻¹ s⁻¹
Kd [14]: 0.0228 nM
koff [14]: 4.6e-05 s⁻¹
kon [14]: 2.02e+06 M⁻¹ s⁻¹

B5: MOR09610 IgG (antibody, V domains shown)
VH: EVQLVQSGAEVKKPGSSVKVSCKASGGTFSSYTFSWVRQAPGQGLEWMGNILPIFGDANYAQKFQGRVTITADESTSTAYMELSSLRSEDTAVYYCARNKGAFYYMSTYPSLDVWGQGTLVTVSS
VL: DIQMTQSPSSLSASVGDRVTITCRASQNINYYLNWYQQKPGKAPKLLIYDAFSLQSGVPSRFSGSGSGTDFTLTISSLQPEDFATYYCQQSIAVPPFTFGQGTKVEIKR
notes: Germlined human IgG1 with leucines 234 and 235 changed to alanines, kappa; also called antibody 9610
fold binding selectivity for C3b over C3 [9]: > 1000 fold
IC50 (read off the curve) [10]: ~0.2 nM
MAC deposition on zymosan, IC50 [11]: ≤ 5 nM
hemolysis of rabbit red blood cells, 10% human or cynomolgus serum, IC50 [11]: ≤ 50 nM
inhibition of C3a and C5a generation during hemolysis, IC50 [11]: ≤ 50 nM
binding result (human C3d [12]): no binding (tested: 100 nM)
Kd [13]: 0.0049 nM
koff [13]: 4.02e-06 s⁻¹
kon [13]: 820000 M⁻¹ s⁻¹
Kd [14]: 0.0335 nM
koff [14]: 6.41e-05 s⁻¹
kon [14]: 1.91e+06 M⁻¹ s⁻¹

B6: MOR09373 Fab (Fab, V domains shown)
VH: QVQLVQSGAEVKKPGASVKVSCKASGYTFTSYSMHWVRQAPGQGLEWMGLINPYNGNTHYAQKFQGRVTMTRDTSISTAYMELSSLRSEDTAVYYCARMLRFDVWGQGTLVTVSS
VL: DIALTQPASVSGSPGQSITISCTGTSSDGGGYNYVSWYQQHPGKAPKLMIYGVSNRPSGVSNRFSGSKSGNTASLTISGLQAEDEADYYCQTYTRYSDSPVFGGGTKLTVLG
notes: also called Fab 9373
C3b Dep (nM), cyno serum, IC50 [2]: 5 nM
HA (nM), 10% cyno serum, IC50 [2]: 62 nM
MAC Dep (nM), cyno serum, IC50 [2]: 6 nM
Kd [4]: 0.078 nM
binding result (human C5 [6]): no binding
Kd [8]: 0.009 nM

B7: MOR09674 IgG (antibody, V domains shown)
VH: EVQLVQSGAEVKKPGASVKVSCKASGYTFTSYSMHWVRQAPGQGLEWMGLINPYNGNTHYAQKFQGRVTMTRDTSISTAYMELSSLRSEDTAVYYCARMLRFDVWGQGTLVTVSS
VL: ESALTQPASVSGSPGQSITISCTGTSSDGGGYNYVSWYQQHPGKAPKLMIYGVSNRPSGVSNRFSGSKSGNTASLTISGLQAEDEADYYCQTYTRYSDSPVFGGGTKLTVLG
notes: Germlined human IgG1 with leucines 234 and 235 changed to alanines, lambda; also called antibody 9674
Kd [14]: 0.00713 nM
koff [14]: 5.95e-05 s⁻¹
kon [14]: 8.34e+06 M⁻¹ s⁻¹

Results, then the binder that gave them:

C3b Dep (nM), human serum, IC50 [1]: 7 nM
HA (nM), 10% human serum, IC50 [1]: 27 nM
MAC Dep (nM), human serum, IC50 [1]: 1 nM
C3b Dep (nM), cyno serum, IC50 [2]: 9 nM
HA (nM), 10% cyno serum, IC50 [2]: 43 nM
MAC Dep (nM), cyno serum, IC50 [2]: 2 nM
Kd [3]: 0.1 nM
Kd [4]: 0.02 nM
binding result (human C3d [5]): no binding
binding result (human C5 [6]): no binding
Kd [7]: 0.039 nM
Kd [8]: 0.004 nM
B3: MOR09141 Fab (Fab, V domains shown)
VH: QVQLVQSGAEVKKPGSSVKVSCKASGGTFSSYTFSWVRQAPGQGLEWMGNILPIFGDANYAQKFQGRVTITADESTSTAYMELSSLRSEDTAVYYCARNKGAFYYMSTYPSLDVWGQGTLVTVSS
VL: DIQMTQSPSSLSASVGDRVTITCRASQNINYYLNWYQQKPGKAPKLLIYDAFSLQSGVPSRFSGSGSGTDFTLTISSLQPEDFATYYCQQSIAVPPFTFGQGTKVEIKR
notes: also called Fab 9141

binding result (human C5 [15]): no binding (tested: 200 nM)
B4: 9609 (Fab, V domains shown)
VH: EVQLVQSGAEVKKPGSSVKVSCKASGGTFSSYTFSWVRQAPGQGLEWMGNILPIFGDANYAQKFQGRVTITADESTSTAYMELSSLRSEDTAVYYCARNKGAFYYMSTYPSLDVWGQGTLVTVSS
VL: DIQMTQSPSSLSASVGDRVTITCRASQNINYYLNWYQQKPGKAPKLLIYDAFSLQSGVPSRFSGSGSGTDFTLTISSLQPEDFATYYCQQSWSVPPFTFGQGTKVEIK
notes: the IgG is m13; also called 9609 Fab format; MOR9609 Fab
